From patent US20040081651A1 (Biogen, published 2004)
Each block holds one binder with its values, some of them ahead of it.

Tests used:
[1] = biological target: T1, human VLA-1 (α1β1 integrin) on K562 cells transfected with the α1 integrin subunit (human, UniProt P56199 29-1179; P05556 21-798); assay: FACS on human α1-transfected K562 cells
T1 construct: whole, on cells; also called huVLA-1; K562-α1

[2] = biological target: T2, α1β1 integrin (VLA-1) in lysate of α1-transfected K562 cells (human, UniProt P56199 29-1179; P05556 21-798); assay: electrochemiluminescence; inhibition of α1β1 (K562-α1 lysate) binding to type IV collagen beads (±0.002 in r14)
[3] = biological target: T1, human VLA-1 (α1β1 integrin) on K562 …; assay: FACS of VLA-1-expressing K562α1 cells stained with conditioned medium of transfected 293-EBNA cells; mean MFI normalized to chAQC2 blocked; average of two transfections
[4] = biological target: T3, human α1-I domain-GST fusion protein (human, UniProt P56199 151-364); assay: ELISA on immobilized α1 I domain-GST (±0.058 in r14)
T3 construct: Expressed in E. coli; not shown: glutathione S-transferase of vector pGEX4t-i (Pharmacia), with a thrombin cleavage site at the junction

[5] = biological target: T3, human α1-I domain-GST fusion protein; assay: ELISA; competition with biotinylated mAQC2 (competitor) for immobilized α1 I domain-GST
[6] = biological target: T3, human α1-I domain-GST fusion protein; assay: electrochemiluminescence; inhibition of α1 I domain-GST binding to type IV collagen beads (±0.007 in r14)
[7] = biological target: T3, human α1-I domain-GST fusion protein; assay: ELISA on immobilized α1 I domain-GST (±0.015 in r12)
[8] = biological target: T3, human α1-I domain-GST fusion protein; assay: electrochemiluminescence; inhibition of α1 I domain-GST binding to type IV collagen beads (±0.011 in r12)
[9] = biological target: T2, α1β1 integrin (VLA-1) in lysate of …; assay: electrochemiluminescence; inhibition of α1β1 (K562-α1 lysate) binding to type IV collagen beads (±0.014 in r12)

EC50 [1]: 0.25 nM
IC50 [2]: 0.071 nM
Relative MFI [3]: 1 relative to chAQC2 blocked
EC50 [4]: 0.176 nM
IC50 [5]: 30 nM
IC50 [6]: 0.027 nM
B1: chAQC2 (murine-human chimeric AQC2, blocked light chain; pAND099 + pAND102) (antibody, V domains shown)
VH: DVKVVESGGGLVKPGGSLKLACAASGFSFSRYTMSWVRQIPEKRLEWVATISGGGHTYYLDSVKGRFTISRDNAKNTLYLQMSSLRSEDTAMYYCTRGFGDGGYFDVWGQGTTVTVSS
VL: QIVLTQFPALMSASPGEKVTMTCSASSSVNHMFWYQQKPKSSPKPWIYLTSNLASGVPARFSGSGSGTSYSLTISSMEAEDAATYYCQQWSGNPWTFGGGTKLEIK
notes: also called Chimera

EC50 [7]: 0.061 nM
IC50 [5]: 38 nM
IC50 [8]: 0.029 nM
IC50 [9]: 0.0726 nM
B2: monoclonal antibody AQC2 (mAQC2) (antibody, mouse IgG1, V domains shown)
VH: B1 VH
VL: B1 VL
notes: Hybridoma ATCC PTA3273; also called murine AQC2
